Measured values: patent US8080531B2, “Methods for modulating checkpoint activation through TopBP1” (California Institute of Technology, priority 2006, dated 2011)

B1: XtopBP1Δ993-1196: full-length version of XtopBP1 in which most of the ATR-activating domain had been deleted (protein)
chain: MASSENEPFCVKFIKSPENSEYFFKAYEAIKQIQSDESLQLTEEREALLLKEKDKSLYICDPFSGAAFSHLKKLGCRIVGPQVVIFCMENQRRVPRAEYPVYNMAMADVTISCTSLDKETREDVHHYVQIMGGCVYRDLNVSVTHLIAGEVGSKKYLVAASLEKPILLPSWVKELWEKSNQRIIRYSDVNMTEYLCPIFRGCTICVTGLSSLDRKEVQRLTALHGGEYTGQLKMNESTHLIVQEAKGQKYECARKWNVHCISVQWFFDSIEKGFCQDETMYKIEPASTIKSVPDTSTPTGGNSKPNSRALYDVSQISNISTSCVNESAFNSAMASRLDPPADTLENLDISSLQAPDDLLDGCRIYLCGFGGRKLDKLRKLINNGGGVRFNQLTGDVTHIIVGETDEELKQFLNKTQHRPYVLTVKWLLDSFAKGHLQPEEIYFHSSYQQTEMPSPFEPAINLTANKMSSTRGPLNHTRNHQADEDLLSQYTENNSTLIEDEHPKTSNTNSISQMSMHEDMTTCTSQSGLADTSTIIEGGLFSRKQFMVLGFLEEDEACIIDIIKKSAGKVLSSQKRAIADYAVVPLLGCEVESTVGEVVTNAWLGMCIEQEKLLDPHSNALFTPVPFLEGSTPLRECVLSVSQFMGAERDSLVYLAGLLGAKVQEFFVRKANPKKGMFASTHLVLKDAEGSKYEAAKKWNLPAVTMNWLLQCARTGRKADEDSYLVDNVPEEDKDESFISQTYKPQAIRLSMHAPCHLENHPEALTKAAVTPLDMNRFKSKAFQSVISQHNKNPQTSGGESKVLQREPSLHLDTPSKFLSKDKLFKPSFDVKDALAALETPGGPNQKNRTQSTPLSEVIGRNLQLAIANSTRQTAAVTASPQLKAAEKKEFDNSKLLINVVICVSKKLIKKQGELNGIAASLGAEYRWCFDESVTHFIYHGRQNDMSREYKSVKERSGIYIVSEHWLFACSEQQKRVPEALYPHTYNPKMSLEFEPKSAMRTPVIENNLQSPTKPDHLTPTPQAPSIAFPLANPPVAPQPREKPVQPFSKEETLKERRFQLSSLDPQERIDYSQLIEELGGVVIEKQCFDPSCTHIVVGHPLRNEKYLASMAAGKWVLHRSYLEACRAAKRFIQEEDYEWGSISILSAVTNINPQQRMLAEAAMRWRKKLQGIKQNMGIAEGAFSGWKVILNVDQTKEPGFKRLLQSGGAKVFAGHSSPLFKEASHLFADFSKLKPDEPRVNVAEAAAQGVNCLKPEYIADYLMKELPPPMNNYCLPDAIPYVRVTGTGLSRKRKTSGDVSDVKRSRHY
modifications: left off: small tags and cut ends
B2: GST-XtopBP1 (1197-1513): GST fusion of XtopBP1 residues 1197-1513, containing two adjoining BRCT repeats (protein)
chain: EFEPKSAMRTPVIENNLQSPTKPDHLTPTPQAPSIAFPLANPPVAPQPREKPVQPFSKEETLKERRFQLSSLDPQERIDYSQLIEELGGVVIEKQCFDPSCTHIVVGHPLRNEKYLASMAAGKWVLHRSYLEACRAAKRFIQEEDYEWGSISILSAVTNINPQQRMLAEAAMRWRKKLQGIKQNMGIAEGAFSGWKVILNVDQTKEPGFKRLLQSGGAKVFAGHSSPLFKEASHLFADFSKLKPDEPRVNVAEAAAQGVNCLKPEYIADYLMKELPPPMNNYCLPDAIPYVRVTGTGLSRKRKTSGDVSDVKRSRHY
modifications: left off: a dimerising Fc or GST
notes: GST fusion of XtopBP1 residues 1197-1513, containing two adjoining BRCT repeats
B3: residues 1050-1192: His6-Human TopBP1 fragment containing residues 1050-1192 (protein, UniProt Q92547 1050-1192, looked up, fragment)
chain: NGSGKNDSKGVLTQTLEMRENFQKQLQEIMSATSIVKPQGQRTSLSRSGCNSASSTPDSTRSARSGRSRVLEALRQSRQTVPDVNTEPSQNEQIIWDDPTAREERARLASNLQWPSCPTQYSELQVDIQNLEDSPFQKPLHDS
modifications: His6 tag
B4: 1008-1286 fragment: His6-Human TopBP1 fragment, residues 1008-1286 (protein)
chain: RLCNSRLLSAVSSTKDDEPDPLILEENDVDNMATNNKESAPSNGSGKNDSKGVLTQTLEMRENFQKQLQEIMSATSIVKPQGQRTSLSRSGCNSASSTPDSTRSARSGRSRVLEALRQSRQTVPDVNTEPSQNEQIIWDDPTAREERARLASNLQWPSCPTQYSELQVDIQNLEDSPFQKPLHDSEIAKQAVCDPGNIRVTEAPKHPISEELETPIKDSHLIPTPQAPSIAFPLANPPVAPHPREKIITIEETHEELKKQYIFQLSSLNPQERIDYCHL
modifications: left off: small tags and cut ends
B5: 1050-1286 fragment: His6-Human TopBP1 fragment, residues 1050-1286 (protein)
chain: NGSGKNDSKGVLTQTLEMRENFQKQLQEIMSATSIVKPQGQRTSLSRSGCNSASSTPDSTRSARSGRSRVLEALRQSRQTVPDVNTEPSQNEQIIWDDPTAREERARLASNLQWPSCPTQYSELQVDIQNLEDSPFQKPLHDSEIAKQAVCDPGNIRVTEAPKHPISEELETPIKDSHLIPTPQAPSIAFPLANPPVAPHPREKIITIEETHEELKKQYIFQLSSLNPQERIDYCHL
modifications: left off: small tags and cut ends
B6: wild-type 978-1286 fragment of human TopBP1: EGFP containing the SV40 nuclear localization sequence and residues 978-1286 of human TopBP1, expressed from transfected plasmid (protein)
chain: KKKRKVAQECKHLPESLYPHTYNPKMSLDISAVQDGRLCNSRLLSAVSSTKDDEPDPLILEENDVDNMATNNKESAPSNGSGKNDSKGVLTQTLEMRENFQKQLQEIMSATSIVKPQGQRTSLSRSGCNSASSTPDSTRSARSGRSRVLEALRQSRQTVPDVNTEPSQNEQIIWDDPTAREERARLASNLQWPSCPTQYSELQVDIQNLEDSPFQKPLHDSEIAKQAVCDPGNIRVTEAPKHPISEELETPIKDSHLIPTPQAPSIAFPLANPPVAPHPREKIITIEETHEELKKQYIFQLSSLNPQERIDYCHL
modifications: left off: large carriers

How the values were obtained:
Xatr-Xatrip [1] = assay: Kinase assay of Xatr-Xatrip complexes isolated from Xenopus egg extracts; format: biochemical; conditions: for activation of Xatr kinase activity toward PHAS-I: isolated Xatr-Xatrip complexes, 32P-ATP, result in words; for ATR activation compared with the 972-1279 fragment: Xatr-XatripΔ222, PHAS-I, His6-human TopBP1 fragments
Chain of Xatr-Xatrip (Q9DE14 whole entry, the tested form may be a part): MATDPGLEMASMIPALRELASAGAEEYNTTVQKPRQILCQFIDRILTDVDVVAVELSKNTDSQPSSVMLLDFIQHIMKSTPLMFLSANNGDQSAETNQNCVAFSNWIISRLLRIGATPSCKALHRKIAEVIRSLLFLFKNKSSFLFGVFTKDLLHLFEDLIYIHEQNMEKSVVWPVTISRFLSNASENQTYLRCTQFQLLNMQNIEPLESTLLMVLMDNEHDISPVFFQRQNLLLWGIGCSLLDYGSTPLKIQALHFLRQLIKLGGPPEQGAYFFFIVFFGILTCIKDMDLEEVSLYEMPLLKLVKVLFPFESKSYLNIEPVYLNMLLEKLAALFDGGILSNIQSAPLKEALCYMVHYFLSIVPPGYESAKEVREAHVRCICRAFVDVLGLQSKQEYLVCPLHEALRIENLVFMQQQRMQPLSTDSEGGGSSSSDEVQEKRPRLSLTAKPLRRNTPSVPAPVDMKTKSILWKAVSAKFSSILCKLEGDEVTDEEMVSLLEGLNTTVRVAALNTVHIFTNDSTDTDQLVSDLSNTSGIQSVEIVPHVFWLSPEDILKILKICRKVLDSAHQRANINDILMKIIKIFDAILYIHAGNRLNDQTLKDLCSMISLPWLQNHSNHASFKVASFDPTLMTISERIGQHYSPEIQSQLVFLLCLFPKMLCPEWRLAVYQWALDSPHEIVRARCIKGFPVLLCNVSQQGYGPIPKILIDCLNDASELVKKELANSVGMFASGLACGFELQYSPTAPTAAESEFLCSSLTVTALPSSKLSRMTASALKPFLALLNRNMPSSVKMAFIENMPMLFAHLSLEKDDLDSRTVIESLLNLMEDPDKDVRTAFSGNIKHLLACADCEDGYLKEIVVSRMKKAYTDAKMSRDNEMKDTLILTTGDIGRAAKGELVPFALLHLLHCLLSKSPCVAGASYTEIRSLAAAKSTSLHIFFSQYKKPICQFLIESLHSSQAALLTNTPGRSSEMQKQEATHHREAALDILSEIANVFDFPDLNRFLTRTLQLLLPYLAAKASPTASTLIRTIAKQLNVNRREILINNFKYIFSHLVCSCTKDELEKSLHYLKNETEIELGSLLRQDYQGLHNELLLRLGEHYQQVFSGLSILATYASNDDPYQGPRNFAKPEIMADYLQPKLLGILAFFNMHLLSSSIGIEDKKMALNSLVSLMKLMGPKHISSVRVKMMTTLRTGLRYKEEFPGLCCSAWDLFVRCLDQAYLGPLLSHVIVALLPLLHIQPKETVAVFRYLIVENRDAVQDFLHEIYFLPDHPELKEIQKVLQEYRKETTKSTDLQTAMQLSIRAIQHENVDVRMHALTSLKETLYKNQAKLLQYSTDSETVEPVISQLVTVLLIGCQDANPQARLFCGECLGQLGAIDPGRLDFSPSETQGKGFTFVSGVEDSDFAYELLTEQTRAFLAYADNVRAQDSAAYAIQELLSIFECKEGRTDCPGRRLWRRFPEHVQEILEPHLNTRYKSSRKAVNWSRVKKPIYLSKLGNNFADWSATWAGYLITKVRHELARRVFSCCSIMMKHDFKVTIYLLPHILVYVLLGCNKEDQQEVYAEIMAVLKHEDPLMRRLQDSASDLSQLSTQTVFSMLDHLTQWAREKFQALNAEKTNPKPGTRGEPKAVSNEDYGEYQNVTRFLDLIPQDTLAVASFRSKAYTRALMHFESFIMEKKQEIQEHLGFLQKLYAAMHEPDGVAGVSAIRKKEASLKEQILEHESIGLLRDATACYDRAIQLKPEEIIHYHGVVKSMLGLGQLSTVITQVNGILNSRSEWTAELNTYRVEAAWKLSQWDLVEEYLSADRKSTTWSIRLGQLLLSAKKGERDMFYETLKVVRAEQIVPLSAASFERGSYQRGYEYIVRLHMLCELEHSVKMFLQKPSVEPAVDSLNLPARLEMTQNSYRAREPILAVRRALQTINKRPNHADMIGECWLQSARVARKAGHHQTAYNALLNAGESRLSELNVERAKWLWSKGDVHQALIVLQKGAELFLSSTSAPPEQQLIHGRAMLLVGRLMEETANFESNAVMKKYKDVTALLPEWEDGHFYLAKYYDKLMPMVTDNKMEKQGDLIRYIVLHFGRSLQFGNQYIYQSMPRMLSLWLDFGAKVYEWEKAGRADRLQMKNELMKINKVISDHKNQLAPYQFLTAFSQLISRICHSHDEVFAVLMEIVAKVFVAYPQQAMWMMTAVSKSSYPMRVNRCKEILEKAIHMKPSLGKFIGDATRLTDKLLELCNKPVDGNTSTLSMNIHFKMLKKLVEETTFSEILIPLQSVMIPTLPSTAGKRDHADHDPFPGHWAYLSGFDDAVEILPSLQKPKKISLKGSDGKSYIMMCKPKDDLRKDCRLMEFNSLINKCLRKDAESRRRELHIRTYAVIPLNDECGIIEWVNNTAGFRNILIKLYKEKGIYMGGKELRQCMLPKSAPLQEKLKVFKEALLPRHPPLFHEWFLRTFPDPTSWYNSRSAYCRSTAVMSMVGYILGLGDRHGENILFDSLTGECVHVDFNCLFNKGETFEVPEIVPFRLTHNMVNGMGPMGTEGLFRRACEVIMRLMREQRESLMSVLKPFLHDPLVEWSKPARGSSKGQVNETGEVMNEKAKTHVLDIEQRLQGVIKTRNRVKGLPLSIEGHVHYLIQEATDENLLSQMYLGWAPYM
From the text: Specifically, Applicants first isolated Xatr from egg extracts by pull-downs with FLAG-tagged Xenopus ATRIP (Xatrip). For these experiments, Applicants used both full-length Xatrip and an N-terminal truncation mutant (ΔN222) that supports normal Xatr-dependent activation of Xchk1 in egg extracts (Kumagai et al., 2004; Kim et al., 2005).
Applicants eluted the beads with FLAG peptide and mixed the eluates with a His6-tagged version of XtopBP1 that had been purified from baculovirus-infected insect cells (FIG. 1B). Finally, Applicants added ^32P-ATP and PHAS-I, a commonly used model substrate for ATR (Abraham, 2001).
Xatrip-FLAG and XatripΔN222-FLAG (20 ng/μl each) were incubated in interphase extracts containing anti-FLAG M2 antibody beads (Sigma) for 60 min at room temperature. The beads were isolated and washed twice with buffer A (10 mM HEPES-KOH (pH 7.5), 150 mM NaCl, 0.1% CHAPS, and 2.5 mM EGTA) and twice with HEPES-buffered saline (HBS; 10 mM HEPES-KOH (pH 7.5) and 150 mM NaCl). Xatr-Xatrip complexes were eluted in one-tenth the volume of the egg extract in HBS containing 0.1 mg/ml 3×-FLAG peptide (Sigma) for 60 min at 4° C. Eluates (2 μl) were used for kinase assays as described below.
Samples were incubated in 20 μl kinase buffer (50 mM Tris-HCl (pH 7.5), 10 mM MgCl2, 1 mM dithiothreitol, 100 μM nonradioactive ATP, and 100 μCi/ml [γ-^32P]ATP) containing 12.5 μg/ml PHAS-I or 50 μg/ml GST-Xmcm2 (62-122) for 30 min at room temperature. GST-XtopBP1 (972-1279) was added at a final concentration of 100 μg/ml unless indicated otherwise. In some cases, GST-Xmcm2 (62-122), GST-Xchk1 (306-352), or full-length Xchk1-Myc-His6 were used as substrates with only […] nonradioactive ATP. Reactions were terminated by boiling in gel sample buffer.

Xatr-Xatrip [2] = assay: Glutathione bead pull-down of Xatr and Xatrip from egg extracts; format: binding, Xenopus; conditions: egg extracts, immunoblotting
Description: Specifically, Applicants incubated glutathione beads containing GST-XtopBP1 (972-1279) in egg extracts, reisolated the beads, and performed immunoblotting for both Xatr and Xatrip. […] In addition, in other experiments, there was no binding of Xatr or Xatrip to beads containing GST fusions of the 1-348, 333-646, or 623-984 segments from XtopBP1 (data not shown).
Applicants also tested to see if the association of XtopBP1 with Xatr depends upon Xatrip. For this experiment, Applicants removed endogenous Xatrip from egg extracts by immunodepletion with anti-Xatrip antibodies. As described previously, this procedure leaves behind approximately 30% of the endogenous Xatr, the fraction that is not in a complex with Xatrip (Kumagai et al., 2004). Next, Applicants added GST-XtopBP1 (972-1279) to the Xatrip-depleted extracts and to mock-depleted extracts that had been prepared in parallel.

Xchk1 = assay: Ectopic phosphorylation of 35S-Xchk1 in Xenopus egg extracts without checkpoint-inducing DNA; format: biochemical; conditions: 35S-Xchk1, tautomycin, no checkpoint-inducing DNA template
Description: Because the GST-XtopBP1 (972-1279) fragment could activate Xatr in vitro without the inclusion of DNA, Applicants reasoned that ectopic addition of this fragment to Xenopus egg extracts might also be able to trigger the Xatr-dependent phosphorylation of Xchk1 even in the absence of a checkpoint-inducing DNA template.
Extracts from Xenopus eggs were prepared as described (Kumagai and Dunphy, 2000). A DNA replication checkpoint response was induced by addition of 50 μg/ml aphidicolin into extracts containing demembranated sperm nuclei (3000 per μl) (Kumagai and Dunphy, 2000). To monitor DNA replication, extracts containing 1000 sperm nuclei/μl were incubated with [α-^32P]dATP (Yoo et al., 2004).

human Mcm2 on S108 = assay: Phosphorylation of Mcm2 on S108 in transfected human 293T cells; format: cell-based
From the text: To pursue this issue further, Applicants asked whether the ATR-activating domain of TopBP1 could induce ATR-dependent phosphorylation in human cells. For this purpose, Applicants constructed a version of the enhanced green fluorescent protein (EGFP) containing the SV40 nuclear localization sequence and residues 978-1286 of human TopBP1 (equivalent to residues 972-1279 of XtopBP1). Applicants also produced the W1145R mutant of this plasmid (analogous to the W1138R mutant of XtopBP1). Applicants transfected plasmids encoding these proteins into human 293T cells and performed immunoblotting with anti-phosphopeptide antibodies that detect phosphorylation of human Mcm2 on S108 (which corresponds to S92 of Xmcm2) (Cortez et al., 2004; Yoo et al., 2004).
pEGFP-NLS-TopBP1 (978-1286), which encodes EGFP followed by a nuclear localization sequence (KKKRKV, SEQ ID NO: 11) and amino acids 978-1286 of human TopBP1, was prepared from pEGFP (Clontech) by standard polymerase chain reaction-based methods. Plasmids were transfected into 293T cells with Lipofectamine 2000 (Invitrogen).

Molecule	activation of Xatr kinase activity toward PHAS-I (Xatr-Xatrip [1])	ATR activation compared with the 972-1279 fragment (Xatr-Xatrip [1])	further results
human TopBP1 (residues 978-1192): GST fusion fragment of human TopBP1 (residues 978-1192) from between BRCT domains VI and VII	activated Xatr-Xatrip very effectively		
residues 978-1192: His6-Human TopBP1 fragment containing residues 978-1192		almost as effective as the 972-1279 fragment	
B1	no Xatr-activating capacity		
B2	incapable of activating Xatr		binding of Xatr and Xatrip to glutathione beads (Xatr-Xatrip [2]): no binding; phosphorylation of Xchk1 in egg extracts (Xchk1): did not induce any phosphorylation
B3		almost as effective as the 972-1279 fragment	
B4		slight, but not very significant reduction	
B5		significant reduction	
B6			phosphorylation of Mcm2 on S108 (human Mcm2 on S108; immunoblotting): significantly elevated phosphorylation; phosphorylation of S108 (human Mcm2 on S108; indirect immunofluorescence): increase in the phosphorylation of S108
